In paper PMC9923667:

Target: HPIV3 fusion (F) protein stabilized in the prefusion conformation (HPIV3 preF) (human parainfluenza virus type 3) (UniProt P06828)
Experiment: cryo-EM structure

With “HPIV3 fusion (F) protein stabilized in the prefusion conformation (HPIV3 preF) (from UniProt P06828 19-481) (natural protein)” the stoichiometry N was 3.
